Measurements published in patent US20200199241A1 (Chugai, published 2020).

target: T1, human FcRn (soluble human FcRn complexed with β2-microglobulin) (human, UniProt P61769 21-119, limits assumed); assay: SPR, pH 7.0;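 note: antibodies captured on a Protein L sensor chip with human FcRn injected as analyte, KD calculated from fitted association and dissociation rate constants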
T1 construct: also called hFcRn

Row | Kd | Binder
1 | 0.021 µM | IgG1-F465 (antibody, EU numbering; copies: 2 + 2) heavy: QVQLQESGPGLVKPSETLSLTCAVSGHSISHDHAWSWVRQPPGEGLEWIGFISYSGITNYNPSLQGRVTISRDNSKNTLYLQMNSLRAEDTAVYYCARSLARTTAMDYWGEGTLVTVSSASTKGPSVFPLAPSSKSTSGGTAALGCLVKDYFPEPVTVSWNSGALTSGVHTFPAVLQSSGLYSLSSVVTVPSSSLGTQTYICNVNHKPSNTKVDKKVEPKSCDKTHTCPPCPAPELLGGPSVFLFPPKPKDTLMISRTVEVTCVVVDVSHEDPEVKFNWYVDGVEVHEAKTKPREEQYNSTYRVVSVLQVLHQDWLNGKEYKCKVSGKALPAPIEKTISKAKGQPREPQVYTLPPSRDELTKNQVSLTCLVKGFYPSDIAVEWESNGQPENNYKTTPPVLDSDGSFFLYSKLTVDKSRWQQGNVFSCSVLHEALHYHYTQKSLSLSP light: not shown
2 | 0.043 µM | IgG1-F475 (antibody, EU numbering; copies: 2 + 2) heavy: QVQLQESGPGLVKPSETLSLTCAVSGHSISHDHAWSWVRQPPGEGLEWIGFISYSGITNYNPSLQGRVTISRDNSKNTLYLQMNSLRAEDTAVYYCARSLARTTAMDYWGEGTLVTVSSASTKGPSVFPLAPSSKSTSGGTAALGCLVKDYFPEPVTVSWNSGALTSGVHTFPAVLQSSGLYSLSSVVTVPSSSLGTQTYICNVNHKPSNTKVDKKVEPKSCDKTHTCPPCPAPELLGGPSVFLFPPKPKDTLMISREVEVTCVVVDVSHEDPEVKFNWYVDGVEVHNAKTKPREEQYNSTYRVVSVLQVLHQDWLNGKEYKCKVSNKALPAPIEKTISKAKGQPREPQVYTLPPSRDELTKNQVSLTCLVKGFYPSDIAVEWESNGQPENNYKTTPPVLDSDGSFFLYSKLTVDKSRWQQGNVFSCSVLHEALHYHYTQKSLSLSP light: not shown
3 | 0.055 µM | IgG1-F476 (antibody, EU numbering; copies: 2 + 2) heavy: QVQLQESGPGLVKPSETLSLTCAVSGHSISHDHAWSWVRQPPGEGLEWIGFISYSGITNYNPSLQGRVTISRDNSKNTLYLQMNSLRAEDTAVYYCARSLARTTAMDYWGEGTLVTVSSASTKGPSVFPLAPSSKSTSGGTAALGCLVKDYFPEPVTVSWNSGALTSGVHTFPAVLQSSGLYSLSSVVTVPSSSLGTQTYICNVNHKPSNTKVDKKVEPKSCDKTHTCPPCPAPELLGGPSVFLFPPKPKDTLMISRTVEVTCVVVDVSHEDPEVKFNWYVDGVEVHNAKTKPREEQYNSTYRVVSVLQVLHQDWLNGKEYKCKVSNKALPAPIEKTISKAKGQPREPQVYTLPPSRDELTKNQVSLTCLVKGFYPSDIAVEWASNGQPENNYKTTPPVLDSDGSFFLYSKLTVDKSRWQQGNVFSCSVLHEALHYHYTQKSLSLSP light: not shown
4 | 0.057 µM | IgG1-F468 (antibody, EU numbering; copies: 2 + 2) heavy: QVQLQESGPGLVKPSETLSLTCAVSGHSISHDHAWSWVRQPPGEGLEWIGFISYSGITNYNPSLQGRVTISRDNSKNTLYLQMNSLRAEDTAVYYCARSLARTTAMDYWGEGTLVTVSSASTKGPSVFPLAPSSKSTSGGTAALGCLVKDYFPEPVTVSWNSGALTSGVHTFPAVLQSSGLYSLSSVVTVPSSSLGTQTYICNVNHKPSNTKVDKKVEPKSCDKTHTCPPCPAPELLGGPKVFLFPPKPKDTLMISRTTEVTCVVVDVSHEDPEVKFNWYVDGVEVHNAKTKPREEQYNSTYRVVSVLTPLHQDWLNGKEYKCKVSNKALPAPIEKTISKAKGQPREPQVYTLPPSRDELTKNQVSLTCLVKGFYPSDIAVEWESNGQPENNYKTTPPVLDSDGSFFLYSKLTVDKSRWQQGNVFSCSVLHEALHYHYTQKSLSLSP light: not shown
5 | 0.35 µM | IgG1-F466 (antibody, EU numbering; copies: 2 + 2) heavy: QVQLQESGPGLVKPSETLSLTCAVSGHSISHDHAWSWVRQPPGEGLEWIGFISYSGITNYNPSLQGRVTISRDNSKNTLYLQMNSLRAEDTAVYYCARSLARTTAMDYWGEGTLVTVSSASTKGPSVFPLAPSSKSTSGGTAALGCLVKDYFPEPVTVSWNSGALTSGVHTFPAVLQSSGLYSLSSVVTVPSSSLGTQTYICNVNHKPSNTKVDKKVEPKSCDKTHTCPPCPAPELLGGPSVFLFPPKPKDTLMISREVEVTCVVVDVSHEDPEVKFNWYVDGVEVHNAKTKPREEQYNSTYRVVSVLTVLHQDWLNGKEYKCKVSNKALPAPIEKTISKAKGQPREPQVYTLPPSRDELTKNQVSLTCLVKGFYPSDIAVEWESNGQPENNYKTTPPVLDSDGSFFLYSKLTVDKSRWQQGNVFSCSVMHEALHYHYTQKSLSLSP light: not shown
6 | 0.35 µM | IgG1-F474 (antibody, EU numbering; copies: 2 + 2) heavy: QVQLQESGPGLVKPSETLSLTCAVSGHSISHDHAWSWVRQPPGEGLEWIGFISYSGITNYNPSLQGRVTISRDNSKNTLYLQMNSLRAEDTAVYYCARSLARTTAMDYWGEGTLVTVSSASTKGPSVFPLAPSSKSTSGGTAALGCLVKDYFPEPVTVSWNSGALTSGVHTFPAVLQSSGLYSLSSVVTVPSSSLGTQTYICNVNHKPSNTKVDKKVEPKSCDKTHTCPPCPAPELLGGPSVFLFPPKPKDTLMISRTTEVTCVVVDVSHEDPEVKFNWYVDGVEVHNAKTKPREEQYNSTYRVVSVLTPRHQDWLNGKEYKCKVSGKALPAPIEKTISKAKGQPREPQVYTLPPSRDELTKNQVSLTCLVKGFYPSDIAVEWESNGQPENNYKTTPPVLDSDGSFFLYSKLTVDKSRWQQGNVFSCSVLHEALHYHYTQKSLSLSP light: not shown
7 | 0.57 µM | IgG1-F467 (antibody, EU numbering; copies: 2 + 2) heavy: QVQLQESGPGLVKPSETLSLTCAVSGHSISHDHAWSWVRQPPGEGLEWIGFISYSGITNYNPSLQGRVTISRDNSKNTLYLQMNSLRAEDTAVYYCARSLARTTAMDYWGEGTLVTVSSASTKGPSVFPLAPSSKSTSGGTAALGCLVKDYFPEPVTVSWNSGALTSGVHTFPAVLQSSGLYSLSSVVTVPSSSLGTQTYICNVNHKPSNTKVDKKVEPKSCDKTHTCPPCPAPELLGGPSVFLFPPKPKDTLMISRETEVTCVVVDVSHEDPEVKFNWYVDGVEVHNAKTKPREEQYNSTYRVVSVLTVLHQDWLNGKEYKCKVSNKALPAPIEKTISKAKGQPREPQVYTLPPSRDELTKNQVSLTCLVKGFYPSDIAVEWESNGQPENNYKTTPPVLDSDGSFFLYSKLTVDKSRWQQGNVFSCSVMHEALHYHYTQKSLSLSP light: not shown
8 | 0.054 µM | IgG1-F472 (antibody, EU numbering; copies: 2 + 2) heavy: QVQLQESGPGLVKPSETLSLTCAVSGHSISHDHAWSWVRQPPGEGLEWIGFISYSGITNYNPSLQGRVTISRDNSKNTLYLQMNSLRAEDTAVYYCARSLARTTAMDYWGEGTLVTVSSASTKGPSVFPLAPSSKSTSGGTAALGCLVKDYFPEPVTVSWNSGALTSGVHTFPAVLQSSGLYSLSSVVTVPSSSLGTQTYICNVNHKPSNTKVDKKVEPKSCDKTHTCPPCPAPELLGGPSVFLFPPKPKDTLMISRTTEVTCVVVDVSHEDPEVKFNWYVDGVEVHNAKTKPREEQYNSTYRVVSVLTPLHQDWLNGKEYKCKVSGKALPAPIEKTISKAKGQPREPQVYTLPPSRDELTKNQVSLTCLVKGFYPSDIAVEWESNGQEENNYKTTPPVLDSDGSFFLYSKLTVDKSRWQQGNVFSCSVLHEALHYHYTQKSLSLSP light: not shown
9 | 0.054 µM | IgG1-F470 (antibody, EU numbering; copies: 2 + 2) heavy: QVQLQESGPGLVKPSETLSLTCAVSGHSISHDHAWSWVRQPPGEGLEWIGFISYSGITNYNPSLQGRVTISRDNSKNTLYLQMNSLRAEDTAVYYCARSLARTTAMDYWGEGTLVTVSSASTKGPSVFPLAPSSKSTSGGTAALGCLVKDYFPEPVTVSWNSGALTSGVHTFPAVLQSSGLYSLSSVVTVPSSSLGTQTYICNVNHKPSNTKVDKKVEPKSCDKTHTCPPCPAPELLGGPSVFLFPPKPKDTLMISRETEVTCVVVDVSHEDPEVKFNWYVDGVEVHNAKTKPREEQYNSTYRVVSVLTPLHQDWLNGKEYKCKVSGKALPAPIEKTISKAKGQPREPQVYTLPPSRDELTKNQVSLTCLVKGFYPSDIAVEWESNGQPENNYKTTPPVLDSDGSFFLYSKLTVDKSRWQQGNVFSCSVLHEALHYHYTQKSLSLSP light: not shown
10 | 0.45 µM | IgG1-F473 (antibody, EU numbering; copies: 2 + 2) heavy: QVQLQESGPGLVKPSETLSLTCAVSGHSISHDHAWSWVRQPPGEGLEWIGFISYSGITNYNPSLQGRVTISRDNSKNTLYLQMNSLRAEDTAVYYCARSLARTTAMDYWGEGTLVTVSSASTKGPSVFPLAPSSKSTSGGTAALGCLVKDYFPEPVTVSWNSGALTSGVHTFPAVLQSSGLYSLSSVVTVPSSSLGTQTYICNVNHKPSNTKVDKKVEPKSCDKTHTCPPCPAPELLGGPSVFLFPPKPKDTLMISRTTEVTCVVVDVSHEDPEVKFNWYVDGVEVHNAKTKPREEQYNSTYRVVSVLTPPHQDWLNGKEYKCKVSGKALPAPIEKTISKAKGQPREPQVYTLPPSRDELTKNQVSLTCLVKGFYPSDIAVEWESNGQPENNYKTTPPVLDSDGSFFLYSKLTVDKSRWQQGNVFSCSVLHEALHYHYTQKSLSLSP light: not shown
11 | 0.056 µM | IgG1-F469 (antibody, EU numbering; 'N3250' read as N325G; copies: 2 + 2) heavy: QVQLQESGPGLVKPSETLSLTCAVSGHSISHDHAWSWVRQPPGEGLEWIGFISYSGITNYNPSLQGRVTISRDNSKNTLYLQMNSLRAEDTAVYYCARSLARTTAMDYWGEGTLVTVSSASTKGPSVFPLAPSSKSTSGGTAALGCLVKDYFPEPVTVSWNSGALTSGVHTFPAVLQSSGLYSLSSVVTVPSSSLGTQTYICNVNHKPSNTKVDKKVEPKSCDKTHTCPPCPAPELLGGPSVFLFPPKPKDTLMISRTTEVTCVVVDVSHEDPEVKFNWYVDGVEVHNAKTKPREEQYNSTYRVVSVLTPLHQDWLNGKEYKCKVSGKALPAPIEKTISKAKGQPREPQVYTLPPSRDELTKNQVSLTCLVKGFYPSDIAVEWESNGQPENNYKTTPPVLDSDGSFFLYSKLTVDKSRWQQGNVFSCSVLHEALHYHYTQKSLSLSP light: not shown
12 | 0.066 µM | IgG1-F471 (antibody, EU numbering; copies: 2 + 2) heavy: QVQLQESGPGLVKPSETLSLTCAVSGHSISHDHAWSWVRQPPGEGLEWIGFISYSGITNYNPSLQGRVTISRDNSKNTLYLQMNSLRAEDTAVYYCARSLARTTAMDYWGEGTLVTVSSASTKGPSVFPLAPSSKSTSGGTAALGCLVKDYFPEPVTVSWNSGALTSGVHTFPAVLQSSGLYSLSSVVTVPSSSLGTQTYICNVNHKPSNTKVDKKVEPKSCDKTHTCPPCPAPELLGGPSVFLFPPKPKDTLMISRTTEVTCVVVDVSHEDPEVKFNWYVDGVEVHNAKTKPREEQYNSTYRVVSVLTPLHQDWLNGKEYKCKVSGKALPAPIEKTISKAKGQPREPQVYTLPPSRDELTKNQVSLTCLVKGFYPSDIAVEWASNGQPENNYKTTPPVLDSDGSFFLYSKLTVDKSRWQQGNVFSCSVLHEALHYHYTQKSLSLSP light: not shown
13 | 0.043 µM | IgG1-F477 (antibody, EU numbering; copies: 2 + 2) heavy: QVQLQESGPGLVKPSETLSLTCAVSGHSISHDHAWSWVRQPPGEGLEWIGFISYSGITNYNPSLQGRVTISRDNSKNTLYLQMNSLRAEDTAVYYCARSLARTTAMDYWGEGTLVTVSSASTKGPSVFPLAPSSKSTSGGTAALGCLVKDYFPEPVTVSWNSGALTSGVHTFPAVLQSSGLYSLSSVVTVPSSSLGTQTYICNVNHKPSNTKVDKKVEPKSCDKTHTCPPCPAPELLGGPSVFLFPPKPKDTLMISRTVEVTCVVVDVSHEDPEVKFNWYVDGVEVHNAKTKPREEQYNSTYRVVSVLQVLHQDWLNGKEYKCKVSNKALPAPIEKTISKAKGQPREPQVYTLPPSRDELTKNQVSLTCLVKGFYPSDIAVEWESNGQEENNYKTTPPVLDSDGSFFLYSKLTVDKSRWQQGNVFSCSVLHEALHYHYTQKSLSLSP light: not shown
